Source: the Immune Epitope Database (IEDB)

How the values were obtained:
Assay in all cases: IEDB peptide-MHC binding, purified MHC/competitive/radioactivity; filed as Kd, often an IC50 or EC50 that approximates it; ≥ and ≤ were set here for values at or beyond the usual limits of such assays
[1] = biological target: HLA-A*03:01
[2] = biological target: HLA-A*11:01
[3] = biological target: HLA-A*68:01
[4] = biological target: HLA-A*33:01
[5] = biological target: HLA-A*31:01
[6] = source organism: Vaccinia virus WR
[7] = source organism: Dengue virus 3 Martinique/1243/1999
[8] = source organism: Dengue virus 4 Philippines/H241/1956
[9] = source organism: Lassa virus Josiah
[10] = source organism: Mammarenavirus guanaritoense
[11] = source organism: Dengue virus 1 Brazil/97-11/1997
[12] = source organism: Mammarenavirus machupoense
[13] = source organism: Mammarenavirus brazilense
[14] = source organism: SARS coronavirus Tor2

Row | Sequence | Kd [1, 6] [nM] | Kd [2, 6] [nM] | Kd [3, 6] [nM] | Kd [4, 6] [nM] | Kd [5, 6] [nM] | also measured
1 | IQLDEKSSIK | 1.25 | 4.57 | 551 | ≥ 70000 | 81.1 | –
2 | GLYGNGVVTK | – | – | – | – | – | Kd [1, 7]: 3.65 nM
3 | MSYTMCSGK | – | – | – | – | – | Kd [1, 8]: 3.04 nM; Kd [3, 8]: 5.87 nM
4 | CVYNMMGKR | – | – | – | – | – | Kd [1, 8]: 63.4 nM; Kd [3, 8]: 117 nM; Kd [5, 8]: 137 nM
5 | IFMRDWNSKY | ≥ 33300 | ≥ 20500 | 10900 | 13700 | 2480 | –
6 | YALINLVQYR | 11700 | 6860 | 21.8 | 1270 | 570 | –
7 | VTTKDYFSFK | 26.1 | 11 | 155 | 7280 | 561 | –
8 | NTKSDIDVIK | 8260 | 68.4 | 0.547 | 970 | 4030 | –
9 | LIIYYQLAGY | 137 | 5120 | 8000 | ≥ 67600 | ≥ 25700 | –
10 | KSIENKHQRR | 11100 | 198 | 11200 | 9320 | 0.608 | –
11 | KAIKILTGFR | – | – | – | – | – | Kd [5, 8]: 7.75 nM
12 | LIDTTSRELK | 38.9 | 162 | 432 | 716 | 147 | –
13 | ELTTVFIKY | 269 | 6690 | 855 | 5450 | 1820 | –
14 | TTGRTSLPK | – | – | – | – | – | Kd [1, 9]: 5240 nM; Kd [2, 9]: 1760 nM; Kd [3, 9]: 13300 nM; Kd [4, 9]: 14500 nM; Kd [5, 9]: 18000 nM
15 | VIDKAKVMGR | 805 | 488 | 334 | 2650 | 130 | –
16 | NSYSLIRLSH | – | – | – | – | – | Kd [1, 10]: 9960 nM; Kd [2, 10]: ≥ 24600 nM; Kd [3, 10]: 10200 nM; Kd [4, 10]: 3250 nM; Kd [5, 10]: 9770 nM
17 | GLCAHILLY | 14 | 37.5 | 3200 | 8360 | 18000 | –
18 | LLMHLVSLY | 2.67 | 7.11 | 9.95 | ≥ 52500 | – | –
19 | RKTFVELMRR | – | – | – | – | – | Kd [5, 11]: 51.2 nM

Row | Sequence | Kd [1, 6] [nM] | Kd [2, 6] [nM] | Kd [3, 6] [nM] | Kd [4, 6] [nM] | Kd [5, 6] [nM] | also measured
20 | YIAVANCVR | ≥ 78000 | 13900 | 6.73 | 284 | 14.2 | –
21 | VTVASAAQR | – | – | – | – | – | Kd [3, 11]: 48.7 nM
22 | KQLCYCPASK | 27.1 | 13.9 | 11300 | ≥ 31100 | 31 | –
23 | KTNDINVRR | 112 | 30.1 | 12.1 | 16700 | 2.24 | –
24 | NYTRFWYINH | – | – | – | – | – | Kd [1, 10]: 9020 nM; Kd [2, 10]: 12300 nM; Kd [3, 10]: 4140 nM; Kd [4, 10]: 48.8 nM; Kd [5, 10]: 1340 nM
25 | NYSKYWYLNH | – | – | – | – | – | Kd [1, 9]: ≥ 70000 nM; Kd [2, 9]: ≥ 21800 nM; Kd [3, 9]: ≥ 70100 nM; Kd [4, 9]: 863 nM; Kd [5, 9]: 1480 nM
26 | TVEAGRTLR | – | – | – | – | – | Kd ([3]; source organism: Dengue virus 2 Peru/IQT2913/1996): 13 nM
27 | TVHKLTQDEK | 12300 | 80.5 | 220 | ≥ 70000 | ≥ 70000 | –
28 | DVSLIIEYK | 16100 | 152 | 3.57 | 111 | 72.2 | –
29 | SSVSVLMKEH | – | – | – | – | – | Kd [1, 12]: 17700 nM; Kd [2, 12]: ≥ 31000 nM; Kd [3, 12]: 8860 nM; Kd [4, 12]: ≥ 70000 nM; Kd [5, 12]: 11700 nM
30 | NSTCYVFGLY | 161 | 19.5 | 8.95 | 9000 | 3240 | –
31 | ILNKIVQLPK | 17.3 | 289 | 8300 | ≥ 70000 | 2070 | –
32 | MVNHSTYYVH | – | – | – | – | – | Kd [1, 13]: 10100 nM; Kd [2, 13]: 6280 nM; Kd [3, 13]: 391 nM; Kd [4, 13]: 3020 nM; Kd [5, 13]: 544 nM
33 | KTYIDVNEEY | 1800 | 777 | 10500 | ≥ 70000 | 1880 | –
34 | FTTSLSLHK | – | – | – | – | – | Kd [1, 14]: 1350 nM; Kd [2, 14]: 181 nM; Kd [3, 14]: 271 nM; Kd [4, 14]: 1130 nM; Kd [5, 14]: 2860 nM
35 | DMQKFTILEY | ≥ 53500 | 3530 | ≥ 24500 | ≥ 70000 | ≥ 70000 | –
36 | ISELSRLRY | 6570 | 10800 | ≥ 22700 | ≥ 77700 | 5370 | –
37 | TVVRDFENY | ≥ 63000 | 1210 | 1100 | ≥ 77700 | ≥ 77900 | –
38 | LLNRFTMTHR | – | – | – | – | – | Kd [5, 7]: 15.2 nM
